Measured values: patent US20240287172A1 (SCIRHOM, published 2024)

Experiments:
hiR1-FL-WT-T7 = target: T1, hiR1-FL-WT-T7 (human, UniProt Q96CC6 1-855); experiment: FACS on MEF-DKO-hiR1-FL-WT-T7 cells
T1 construct: on MEF-DKO cells
T1 sequence: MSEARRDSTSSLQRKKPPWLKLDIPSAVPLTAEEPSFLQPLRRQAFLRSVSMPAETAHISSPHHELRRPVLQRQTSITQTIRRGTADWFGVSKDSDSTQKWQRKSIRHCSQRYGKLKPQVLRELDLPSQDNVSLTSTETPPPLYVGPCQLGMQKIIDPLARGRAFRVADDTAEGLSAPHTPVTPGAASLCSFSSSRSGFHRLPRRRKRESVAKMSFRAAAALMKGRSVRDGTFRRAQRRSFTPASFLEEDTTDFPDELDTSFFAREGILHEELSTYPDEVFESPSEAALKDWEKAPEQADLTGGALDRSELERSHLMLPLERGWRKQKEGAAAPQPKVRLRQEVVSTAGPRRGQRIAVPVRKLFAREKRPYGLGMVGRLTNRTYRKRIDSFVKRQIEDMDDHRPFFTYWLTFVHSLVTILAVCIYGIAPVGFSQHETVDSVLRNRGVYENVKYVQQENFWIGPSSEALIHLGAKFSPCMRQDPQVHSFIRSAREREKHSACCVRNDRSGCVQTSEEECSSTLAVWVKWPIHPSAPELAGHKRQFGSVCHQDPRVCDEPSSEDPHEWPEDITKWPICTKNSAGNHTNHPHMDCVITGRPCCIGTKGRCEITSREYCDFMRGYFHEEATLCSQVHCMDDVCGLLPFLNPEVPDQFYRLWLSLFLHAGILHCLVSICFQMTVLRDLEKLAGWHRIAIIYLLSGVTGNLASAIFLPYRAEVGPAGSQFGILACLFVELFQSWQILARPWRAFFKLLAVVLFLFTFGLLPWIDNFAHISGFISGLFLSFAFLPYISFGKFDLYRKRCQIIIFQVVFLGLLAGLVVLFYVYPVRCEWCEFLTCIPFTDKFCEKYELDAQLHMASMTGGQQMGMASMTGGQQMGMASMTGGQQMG

miR2-FL-WT-T7 = target: T2, miR2-FL-WT-T7 (mouse, UniProt Q80WQ6 1-827); experiment: FACS on MEF-DKO-miR2-FL-WT-T7 cells
T2 construct: on MEF-DKO cells
T2 sequence: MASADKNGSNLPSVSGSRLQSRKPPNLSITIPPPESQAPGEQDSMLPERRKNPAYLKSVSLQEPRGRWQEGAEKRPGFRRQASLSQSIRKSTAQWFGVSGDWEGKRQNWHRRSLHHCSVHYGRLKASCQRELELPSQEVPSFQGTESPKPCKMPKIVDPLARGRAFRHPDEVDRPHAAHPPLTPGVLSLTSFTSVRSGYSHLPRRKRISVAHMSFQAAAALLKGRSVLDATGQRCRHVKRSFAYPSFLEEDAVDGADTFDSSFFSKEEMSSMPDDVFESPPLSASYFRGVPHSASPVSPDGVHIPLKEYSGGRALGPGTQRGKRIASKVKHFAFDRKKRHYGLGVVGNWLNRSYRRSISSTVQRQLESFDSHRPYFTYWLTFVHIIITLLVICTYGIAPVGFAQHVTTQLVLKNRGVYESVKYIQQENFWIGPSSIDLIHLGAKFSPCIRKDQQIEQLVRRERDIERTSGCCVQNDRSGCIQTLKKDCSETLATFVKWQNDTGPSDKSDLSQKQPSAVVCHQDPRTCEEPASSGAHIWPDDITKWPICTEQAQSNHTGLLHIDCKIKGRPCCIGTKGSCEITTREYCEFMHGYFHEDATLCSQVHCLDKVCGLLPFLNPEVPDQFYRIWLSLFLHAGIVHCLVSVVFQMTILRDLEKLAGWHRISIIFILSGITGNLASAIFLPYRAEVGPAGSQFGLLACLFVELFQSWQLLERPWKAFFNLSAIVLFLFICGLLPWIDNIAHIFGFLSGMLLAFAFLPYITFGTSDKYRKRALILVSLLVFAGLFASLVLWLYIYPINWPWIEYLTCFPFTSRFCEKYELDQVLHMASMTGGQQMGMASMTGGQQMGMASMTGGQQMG

Binder	binding result (hiR1-FL-WT-T7)	binding result (miR2-FL-WT-T7)
antibody 3 (antibody, V domains shown, mouse IgG, kappa light chain; also called clone #3; purified antibody 3) VH: QVTLKESGPGILQPSQTLSLTCSFSGFSLTTFAMGIGWVRQPSGKGLEWLAHIWWDGEKYNNPVLKSRLTISKDTSKNQVFLRIANVDTPDTATYYCARISSIYYIIDNWGQGTSVTVSS VL: DIVLTQSPATLSVTPGHSVSLSCRASQSISNNLHWYQKKSHESPRLLIKYVSQSISGIPSRFSGSGSGTDFTLSINSVETEDFGMYFCQQSYNWPLTFGAGTKLELK	no binding (tested: 3 µg/ml)	
antibody 50 (antibody, V domains shown, mouse IgG, kappa light chain; also called clone #50; purified antibody 50) VH: QVQLQQSGAELVRPGASVKVSCKASGYAFSNYLIEWVKQRPGQGLEWIGVINPGSGFTKYNEKFKGKATLTADKSSSTAYMQLSSLTSEDSAVYFCARGLYRAMDYWGQGTSVTVSS VL: DIQMTQSPASQSASLGESVTITCLASQTIGTWLAWYQQKPGKSPQLLIYAAASLADGVPSRFSGGGSGTKFSFKISSLQAEDFVNYYCQQIYSTPYTFGGGTKLEIK		no binding (tested: 3 µg/ml)
